Measured values: patent US20250222032A1 (published 2025)

Key:
[1] = biological target: T1, RAS G12D (KRAS, also HRAS and NRAS) peptide on HLA-A*11:01 (human); test: cytokine release
T1 peptide: VVVGADGVGK

[2] = biological target: T2, RAS G12D (KRAS, also HRAS and NRAS) peptide on HLA-A*11:01 (human); test: cytokine release
T2 peptide: VVGADGVGK

[3] = biological target: T3, RAS G12C peptide on HLA-A*11:01 (human); test: cytokine release
T3 peptide: VVVGACGVGK

[4] = biological target: T4, RAS wild type (KRAS, also HRAS and NRAS) peptide on HLA-A*11:01 (human); test: multimer staining
T4 peptide: VVVGAGGVGK

[5] = biological target: dextramers composed of HLA-A*11:01 complexes loaded with the RAS-WT peptide (human); test: dual dextramer labeling of TCR T3 transduced T cells, flow cytometry

B1: TCR T3 (TCR, V domains shown)
Valpha: GQQLNQSPQSMFIQEGEDVSMNCTSSSIFNTWLWYKQDPGEGPVLLIALYKAGELTSNGRLTAQFGITRKDSFLNISASIPSDVGIYFCAGRREGAQKLVFGQGTRLTINP
Vbeta: GAGVSQSPRYKVAKRGQDVALRCDPISGHVSLFWYQQALGQGPEFLTYFQNEAQLDKSGLPSDRFFAERPEGSVSTLKIQRTQQEDSAVYLCASSSTLMGVNIQYFGAGTRLSVL
Does B1 bind [1]?
Result: recognises

Does B1 bind [2]?
Result: recognises

Does B1 bind [3]?
Result: recognises

Does B1 bind [4]?
Result: recognises

And the fraction of the T cells that bound the dextramers [5]?
Its fraction of the T cells that bound the dextramers is 60%.
